Results: IntAct's records for PubMed 20837657

B1: Segment polarity protein dishevelled (Drosophila melanogaster (Fruit fly)), P51140 (parent)
chain: MDADRGGGQETKVIYHIDDETTPYLVKIPIPSAQVTLRDFKLVLNKQNNNYKYFFKSMDADFGVVKEEIADDSTILPCFNGRVVSWLVSADGTNQSDNCSELPTSECELGMGLTNRKLQQQQQQHQQQQQQQQQQHQQQQQQQQQQVQPVQLAQQQQQQVLHHQKMMGNPLLQPPPLTYQSASVLSSDLDSTSLFGTESELTLDRDMTDYSSVQRLQVRKKPQRRKKRAPSMSRTSSYSSITDSTMSLNIITVSINMEAVNFLGISIVGQSNRGGDGGIYVGSIMKGGAVALDGRIEPGDMILQVNDVNFENMTNDEAVRVLREVVQKPGPIKLVVAKCWDPNPKGYFTIPRTEPVRPIDPGAWVAHTQALTSHDSIIADIAEPIKERLDQNNLEEIVKAMTKPDSGLEIRDRMWLKITIPNAFIGADAVNWVLENVEDVQDRREARRIVSAMLRSNYIKHTVNKLTFSEQCYYVVNEERNPNLLGRGHLHPHQLPHGHGGHALSHADTESITSDIGPLPNPPIYMPYSATYNPSHGYQPIQYGIAERHISSGSSSSDVLTSKDISASQSDITSVIHQANQLTIAAHGSNKSSGSSNRGGGGGGGGGGNNTNDQDVSVFNYVL

Variants of: B1
Settings: with abl_drome Abl

**Q.** How did the “effect of a mutation on the interaction” value turn out when Y473F was run?
**A.** Its value is “decreasing interaction strength”.
